Experimental data as given in the supplement of paper PMC5998384.

Legend:
HeLa Kyoto [1] = experiment: melting temperature (median over replicates), in situ; higher = more thermally stable
HeLa Kyoto [2] = experiment: thermal stability score vs G1/S (z-score of summed log2 fold changes over temperatures); higher = more thermally stable than in G1/S
HeLa Kyoto [3] = experiment: solubility in G1/S (NP-40 vs SDS abundance) (log2 ratio); higher = more soluble; conditions: cell cycle stage: G1/S
HeLa Kyoto [4] = experiment: solubility change mitosis vs G1/S (difference of NP-40 vs SDS log2 ratios) (log2 ratio difference); higher = more soluble in mitosis
[5] = cell cycle stage: early G1 (4.5 h after nocodazole release)
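Throughout, for melting temperature (median over replicates), in situ: HeLa Kyoto cells synchronized by double thymidine or nocodazole block, proteins quantified by TMT10plex mass spectrometry, three independent biological replicates.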
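Throughout, for solubility change mitosis vs G1/S (difference of NP-40 vs SDS log2 ratios): synchronized HeLa Kyoto cells (double thymidine block for G1/S, nocodazole release for mitosis), protein amounts in NP-40 versus SDS lysates quantified by mass spectrometry, three biological replicates.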
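Throughout, for solubility in G1/S (NP-40 vs SDS abundance): HeLa Kyoto cells arrested at G1/S by double thymidine block, proteins quantified by TMT10plex mass spectrometry in mild NP-40 versus SDS extracts, three biological replicates.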
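Throughout, for thermal stability score vs G1/S (z-score of summed log2 fold changes over temperatures): synchronized HeLa Kyoto cells, proteins quantified by TMT10plex mass spectrometry, three biological replicates, mitosis taken 0.5 h after nocodazole release, G1/S directly after double thymidine block.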

MRPRKAFLLLLLLGLVQLLAVAGAEGPDEDSSNRENAIEDEEEEEEEDDDEEEDDLEVKEENGVLVLNDANFDNFVADKDTVLLEFYAPWCGHCKQFAPEYEKIANILKDKDPPIPVAKIDATSASVLASRFDVSGYPTIKILKKGQAVDYEGSRTQEEIVAKVREVSQPDWTPPPEVTLVLTKENFDEVVNDADIILVEFYAPWCGHCKKLAPEYEKAAKELSKRSPPIPLAKVDATAETDLAKRFDVSGYPTLKIFRKGRPYDYNGPREKYGIVDYMIEQSGPPSKEILTLKQVQEFLKDGDDVIIIGVFKGESDPAYQQYQDAANNLREDYKFHHTFSTEIAKFLKVSQGQLVVMQPEKFQSKYEPRSHMMDVQGSTQDSAIKDFVLKYALPLVGHRKVSNDAKRYTRRPLVVVYYSVDFSFDYRAATQFWRSKVLEVAKDFPEYTFAIADEEDYAGEVKDLGLSESGEDVNAAILDESGKKFAMEPEEFDSDTLREFVTAFKKGKLKPVIKSQPVPKNNKGPVKVVVGKTFDSIVMDPKKDVLIEFYAPWCGHCKQLEPVYNSLAKKYKGQKGLVIAKMDATANDVPSDRYKVEGFPTIYFAPSGDKKNPVKFEGGDRDLEHLSKFIEEHATKLSRTKEEL [PDIA4]
melting temperature (HeLa Kyoto [1]; cell cycle stage: G1/S): 53.9 °C | melting temperature (HeLa Kyoto [1]; cell cycle stage: mitosis): 54.4 °C | thermal stability score (HeLa Kyoto [2]; [5]): 3.99 | thermal stability score (HeLa Kyoto [2]; cell cycle stage: mitosis): 4.66 | solubility in G1/S (log2) (HeLa Kyoto [3]): 0.264 | solubility change mitosis (log2) (HeLa Kyoto [4]): -0.0655

MRPVRLMKVFVTRRIPAEGRVALARAADCEVEQWDSDEPIPAKELERGVAGAHGLLCLLSDHVDKRILDAAGANLKVISTMSVGIDHLALDEIKKRGIRVGYTPDVLTDTTAELAVSLLLTTCRRLPEAIEEVKNGGWTSWKPLWLCGYGLTQSTVGIIGLGRIGQAIARRLKPFGVQRFLYTGRQPRPEEAAEFQAEFVSTPELAAQSDFIVVACSLTPATEGLCNKDFFQKMKETAVFINISRGDVVNQDDLYQALASGKIAAAGLDVTSPEPLPTNHPLLTLKNCVILPHIGSATHRTRNTMSLLAANNLLAGLRGEPMPSELKL [GRHPR]
melting temperature (HeLa Kyoto [1]; cell cycle stage: G1/S): 54.3 °C | melting temperature (HeLa Kyoto [1]; cell cycle stage: mitosis): 55 °C | thermal stability score (HeLa Kyoto [2]; [5]): 0.108 | thermal stability score (HeLa Kyoto [2]; cell cycle stage: mitosis): 0.371 | solubility in G1/S (log2) (HeLa Kyoto [3]): 0.0329 | solubility change mitosis (log2) (HeLa Kyoto [4]): -0.204

MRRLNRKKTLSLVKELDAFPKVPESYVETSASGGTVSLIAFTTMALLTIMEFSVYQDTWMKYEYEVDKDFSSKLRINIDITVAMKCQYVGADVLDLAETMVASADGLVYEPTVFDLSPQQKEWQRMLQLIQSRLQEEHSLQDVIFKSAFKSTSTALPPREDDSSQSPNACRIHGHLYVNKVAGNFHITVGKAIPHPRGHAHLAALVNHESYNFSHRIDHLSFGELVPAIINPLDGTEKIAIDHNQMFQYFITVVPTKLHTYKISADTHQFSVTERERIINHAAGSHGVSGIFMKYDLSSLMVTVTEEHMPFWQFFVRLCGIVGGIFSTTGMLHGIGKFIVEIICCRFRLGSYKPVNSVPFEDGHTDNHLPLLENNTH [ERGIC2]
melting temperature (HeLa Kyoto [1]; cell cycle stage: G1/S): 54.8 °C | melting temperature (HeLa Kyoto [1]; cell cycle stage: mitosis): 53.8 °C | thermal stability score (HeLa Kyoto [2]; [5]): -2.27 | thermal stability score (HeLa Kyoto [2]; cell cycle stage: mitosis): -7.02 | solubility in G1/S (log2) (HeLa Kyoto [3]): -0.0386 | solubility change mitosis (log2) (HeLa Kyoto [4]): -0.216

MRRMWATQGLAVALALSVLPGSRALRPGDCEVCISYLGRFYQDLKDRDVTFSPATIENELIKFCREARGKENRLCYYIGATDDAATKIINEVSKPLAHHIPVEKICEKLKKKDSQICELKYDKQIDLSTVDLKKLRVKELKKILDDWGETCKGCAEKSDYIRKINELMPKYAPKAASARTDL [MANF]
melting temperature (HeLa Kyoto [1]; cell cycle stage: G1/S): 54.1 °C | melting temperature (HeLa Kyoto [1]; cell cycle stage: mitosis): 52.7 °C | thermal stability score (HeLa Kyoto [2]; [5]): -0.366 | thermal stability score (HeLa Kyoto [2]; cell cycle stage: mitosis): -3.76 | solubility in G1/S (log2) (HeLa Kyoto [3]): 0.682 | solubility change mitosis (log2) (HeLa Kyoto [4]): 0.0195

MRRSEVLAEESIVCLQKALNHLREIWELIGIPEDQRLQRTEVVKKHIKELLDMMIAEEESLKERLIKSISVCQKELNTLCSELHVEPFQEEGETTILQLEKDLRTQVELMRKQKKERKQELKLLQEQDQELCEILCMPHYDIDSASVPSLEELNQFRQHVTTLRETKASRREEFVSIKRQIILCMEALDHTPDTSFERDVVCEDEDAFCLSLENIATLQKLLRQLEMQKSQNEAVCEGLRTQIRELWDRLQIPEEEREAVATIMSGSKAKVRKALQLEVDRLEELKMQNMKKVIEAIRVELVQYWDQCFYSQEQRQAFAPFCAEDYTESLLQLHDAEIVRLKNYYEVHKELFEGVQKWEETWRLFLEFERKASDPNRFTNRGGNLLKEEKQRAKLQKMLPKLEEELKARIELWEQEHSKAFMVNGQKFMEYVAEQWEMHRLEKERAKQERQLKNKKQTETEMLYGSAPRTPSKRRGLAPNTPGKARKLNTTTMSNATANSSIRPIFGGTVYHSPVSRLPPSGSKPVAASTCSGKKTPRTGRHGANKENLELNGSILSGGYPGSAPLQRNFSINSVASTYSEFAKDPSLSDSSTVGLQRELSKASKSDATSGILNSTNIQS [PRC1]
melting temperature (HeLa Kyoto [1]; cell cycle stage: G1/S): 47.1 °C | melting temperature (HeLa Kyoto [1]; cell cycle stage: mitosis): 49 °C | thermal stability score (HeLa Kyoto [2]; [5]): 5.68 | thermal stability score (HeLa Kyoto [2]; cell cycle stage: mitosis): 7.18 | solubility in G1/S (log2) (HeLa Kyoto [3]): 0.0588 | solubility change mitosis (log2) (HeLa Kyoto [4]): 0.431
